Test results reported in publication PMC11065315.

Columns and labels:
[1] = molecular target: phosphorylated eIFiso4F in complex with eIF4B (wheat) (UniProt Q9AUJ7); test: other fluorescence titration; 5°C; quenching of the intrinsic fluorescence of the eIFs by increasing VPg; 20 mM HEPES/KOH pH 7.6, 100 mM NaCl, 1 mM MgCl2, 1 mM DTT
[2] = molecular target: phosphorylated eIFiso4F (wheat eIFiso4Ep and eIFiso4Gp, phosphorylated in vitro by casein kinase 2) (wheat); test: as above
[3] = molecular target: phosphorylated eIFiso4F in complex with eIF4B and poly(A)-binding protein (wheat) (UniProt Q9AUJ7); test: as above
[4] = molecular target: phosphorylated eIFiso4F in complex with poly(A)-binding protein (wheat); test: as above
[5] = molecular target: phosphorylated eIFiso4F in complex with eIF4B (wheat) (UniProt Q9AUJ7); test: other fluorescence titration; 15°C; quenching of the intrinsic fluorescence of the eIFs by increasing VPg; 20 mM HEPES/KOH pH 7.6, 100 mM NaCl, 1 mM MgCl2, 1 mM DTT
[6] = molecular target: phosphorylated eIFiso4F (wheat eIFiso4Ep and eIFiso4Gp, phosphorylated in vitro by casein kinase 2) (wheat); test: as above
[7] = molecular target: phosphorylated eIFiso4F in complex with eIF4B and poly(A)-binding protein (wheat) (UniProt Q9AUJ7); test: as above
[8] = molecular target: phosphorylated eIFiso4F in complex with poly(A)-binding protein (wheat); test: as above
[9] = molecular target: phosphorylated eIFiso4F in complex with eIF4B (wheat) (UniProt Q9AUJ7); test: other fluorescence titration; 25°C; quenching of the intrinsic fluorescence of the eIFs (excitation 280 nm, emission 334 nm) by increasing VPg; 100 nM eIFs or BSA (results; 500 nM in the methods); 20 mM HEPES/KOH pH 7.6, 100 mM NaCl, 1 mM MgCl2, 1 mM DTT; complexes pre-formed for 15 min
[10] = molecular target: phosphorylated eIFiso4F (wheat eIFiso4Ep and eIFiso4Gp, phosphorylated in vitro by casein kinase 2) (wheat); test: as above
[11] = molecular target: phosphorylated eIFiso4F in complex with eIF4B and poly(A)-binding protein (wheat) (UniProt Q9AUJ7); test: as above
[12] = molecular target: phosphorylated eIFiso4F in complex with poly(A)-binding protein (wheat); test: as above
[13] = molecular target: phosphorylated eIFiso4F in complex with eIF4B (wheat) (UniProt Q9AUJ7); test: other fluorescence titration; Van't Hoff plot (ln Keq against 1/T) of the fluorescence titrations at 5, 10, 15, 20 and 25°C
[14] = molecular target: phosphorylated eIFiso4F (wheat eIFiso4Ep and eIFiso4Gp, phosphorylated in vitro by casein kinase 2) (wheat); test: as above
[15] = molecular target: phosphorylated eIFiso4F in complex with eIF4B and poly(A)-binding protein (wheat) (UniProt Q9AUJ7); test: as above
[16] = molecular target: phosphorylated eIFiso4F in complex with poly(A)-binding protein (wheat); test: as above
[17] = molecular target: phosphorylated eIFiso4F in complex with eIF4B (wheat) (UniProt Q9AUJ7); test: other fluorescence titration; 20°C; quenching of the intrinsic fluorescence of the eIFs by increasing VPg; 20 mM HEPES/KOH pH 7.6, 100 mM NaCl, 1 mM MgCl2, 1 mM DTT
[18] = molecular target: phosphorylated eIFiso4F (wheat eIFiso4Ep and eIFiso4Gp, phosphorylated in vitro by casein kinase 2) (wheat); test: as above
[19] = molecular target: phosphorylated eIFiso4F in complex with eIF4B and poly(A)-binding protein (wheat) (UniProt Q9AUJ7); test: as above
[20] = molecular target: phosphorylated eIFiso4F in complex with poly(A)-binding protein (wheat); test: as above
[21] = molecular target: phosphorylated eIFiso4F (wheat eIFiso4Ep and eIFiso4Gp, phosphorylated in vitro by casein kinase 2) (wheat)
[22] = molecular target: phosphorylated eIFiso4F in complex with eIF4B (wheat) (UniProt Q9AUJ7); test: other fluorescence titration; 10°C; quenching of the intrinsic fluorescence of the eIFs by increasing VPg; 20 mM HEPES/KOH pH 7.6, 100 mM NaCl, 1 mM MgCl2, 1 mM DTT
[23] = molecular target: phosphorylated eIFiso4F (wheat eIFiso4Ep and eIFiso4Gp, phosphorylated in vitro by casein kinase 2) (wheat); test: as above
[24] = molecular target: phosphorylated eIFiso4F in complex with eIF4B and poly(A)-binding protein (wheat) (UniProt Q9AUJ7); test: as above
[25] = molecular target: phosphorylated eIFiso4F in complex with poly(A)-binding protein (wheat); test: as above
[26] = molecular target: eIFiso4F (unphosphorylated; wheat eIFiso4E and eIFiso4G) (wheat)

viral protein genome-linked (VPg) of turnip mosaic virus (natural protein)
Kd [1]: 15 nM | Kd [2]: 17.1 nM | Kd [3]: 8.6 nM | Kd [4]: 10.3 nM | Kd [5]: 24 nM | Kd [6]: 26.2 nM | Kd [7]: 16.1 nM | Kd [8]: 19.1 nM | Kd [9]: 34.1 nM | Kd [10]: 41 nM | Kd [11]: 24 nM | Kd [12]: 32 nM | dH [13]: -8.46 kcal/mol | dH [14]: -7.98 kcal/mol | dH [15]: -12.8 kcal/mol | dH [16]: -11.7 kcal/mol | Kd [17]: 29.3 nM | Kd [18]: 31 nM | Kd [19]: 19.5 nM | Kd [20]: 26.5 nM | luciferase translation of capped TEV-luc-A50 mRNA in depleted WGE supplemented with eIFiso4Fp, with against without 20 nM VPg [21]: 2.5 fold | luciferase translation of uncapped TEV-luc-A50 mRNA in depleted WGE supplemented with eIFiso4Fp, with against without 20 nM VPg [21]: 5 fold | luciferase translation of uncapped TEV-luc-A50 mRNA in depleted WGE with eIFiso4Fp and VPg, with against without added PABP [21]: 2 fold | Kd [22]: 19.1 nM | Kd [23]: 21 nM | Kd [24]: 12 nM | Kd [25]: 14 nM | luciferase translation of uncapped TEV mRNA in eIF4F/eIFiso4F/eIF4B/PABP-depleted WGE with 20 nM VPg, escalating PABP up to 200 nM against no PABP [26]: 3 fold
